These results are taken from the RNAGym collection of RNA variant scans (doi:10.7554/elife.80360).

B1: CPEB3 Ribozyme (parent)
chain: GGGGGCCACAGCAGAAGCGUUCACGUCGCGGCCCCUGUCAGAUUCUGGUGAAUCUGCGAAUUCUGCUGU

In this data set the parent is B1. Kind of data set: self-cleavage, relative activity (ratio to wild type); higher = more cleavage; co-transcriptional.
For GGGGGCCACGGCAGAAGCGUUCACGUCGCGGCCCCUGUCAGUUUCUGGUGAAUCUGCGAAUUCUGCUGU [A10G A42U], the self-cleavage amounted to 0.78.

Take GGGGGCCACGGCAGAAGCGUUCACGUCGCGGCCCCUGUCAGAUUCUGGUGAAUCUGCGAAUUCUCCUGU [A10G G65C]: the self-cleavage turned out to be 0.288.

Take GGGGGCCACGGCAGAAGCGUUCACGUCGCCGCCCCUGUCAGAUUCUGGUGAAUCUGCGAAUUCUGCUGU [A10G G30C]: the self-cleavage is 0.94.

Turning to GGGGGCCACGGCAGAAGCGUUCACGUCGCGGCCCCUGUCAGAUUCUGGUGAAUCUGCGAAUUCUGUUGU [A10G C66U], the self-cleavage came out at 0.645.

On to GGGGGCCACGGCAGAAGCGUUCACGUCGCGGCCCCUGUCAGAUUCUGGUGAAUCUGCGAAUUCUGGUGU [A10G C66G], for which the self-cleavage stood at 0.35.

Regarding GGGGGCCACGGCAGAAGCGUUCACGUCUCGGCCCCUGUCAGAUUCUGGUGAAUCUGCGAAUUCUGCUGU [A10G G28U], the self-cleavage worked out at 0.142.

With GGGGGCCACGGCAGAAGCGUUCACGUCACGGCCCCUGUCAGAUUCUGGUGAAUCUGCGAAUUCUGCUGU [A10G G28A], the self-cleavage turned out to be 0.254.

On to GGGGGCCACGGCAGAAGCGUUCACGUCGCGGCCACUGUCAGAUUCUGGUGAAUCUGCGAAUUCUGCUGU [A10G C34A], for which the self-cleavage is 0.89.

As for GGGGGCCACGGCAGAAGCGUUCACGUCGCGGCCGCUGUCAGAUUCUGGUGAAUCUGCGAAUUCUGCUGU [A10G C34G], the self-cleavage was 0.82.

As to GGGGGCCACGGCAGAAGCGUUCACGUCGCGGCCCCUGUCAGAUUCUGCUGAAUCUGCGAAUUCUGCUGU [A10G G48C], the self-cleavage amounted to 0.968.

Regarding GGGGGCCACGGCAGAAGCGUUCACGUCGCGGCCCCUGUCAGAUUCUGUUGAAUCUGCGAAUUCUGCUGU [A10G G48U], the self-cleavage is 1.

In the case of GGGGGCCACGGCAGAAGCGUUCACGUCGCGGCCCCUGUCAGAUUCUGAUGAAUCUGCGAAUUCUGCUGU [A10G G48A], the self-cleavage turned out to be 0.898.

Regarding GGGGGCCACGGCAGAAGCGUUCACGUCGCGGCCCCUGUCAGAUUCUGGUGAAUCUGCGCAUUCUGCUGU [A10G A59C], the self-cleavage stood at 0.517.

Consider GGGGGCCACGGCAGAAGCGUUCACGUCGCGGCCCCUGUCAGAUUCUGGUGAAUCUGCGUAUUCUGCUGU [A10G A59U], for which the self-cleavage is 0.647.

For the variant GGGGGCCACGGCAGAAGCGUUCACGUGGCGGCCCCUGUCAGAUUCUGGUGAAUCUGCGAAUUCUGCUGU [A10G C27G], the self-cleavage is 0.199.

GGGGGCCACGGCAGAAGCGUUCACGUAGCGGCCCCUGUCAGAUUCUGGUGAAUCUGCGAAUUCUGCUGU [A10G C27A]: the self-cleavage stood at 0.857.

As to GGGGGCCACGGCAGAAGCGUUCACGUCGCGGCCCCUGUCAGAUUCUGGUGAAUCUGCAAAUUCUGCUGU [A10G G58A], the self-cleavage came to 0.969.

GGGGGCCACGGCAGAAGCGUUCACGUCGCGGCCCCUGUCAGAUUCUGGUGAAUCUGCCAAUUCUGCUGU [A10G G58C]: the self-cleavage was determined as 0.888.

With GGGGGCCACGGCAGAAGCGUUCACGUCGCGGCCCCUCUCAGAUUCUGGUGAAUCUGCGAAUUCUGCUGU [A10G G37C], the self-cleavage was found to be 0.175.

Regarding GGGGGCCACGGCAGAAGCGUUCACGUCGCGGCCCCUGUCAGAUUCUGGUCAAUCUGCGAAUUCUGCUGU [A10G G50C], the self-cleavage is 0.818.

For the variant GGGGGCCACGGCAGAAGCGUUCACGUCGCGGCCCCUGUCAGAUUCUGGUUAAUCUGCGAAUUCUGCUGU [A10G G50U], the self-cleavage was 0.87.

On to GGGGGCCACGGCAGAAGCGUUCACGUCGCGGCCCCUGUCAGAUUCUGGUGAAUCUGAGAAUUCUGCUGU [A10G C57A], for which the self-cleavage was 0.322.

Consider GGGGGCCACGGCAGAAGCGUUCACGUCGCGGCCCCUGUCAGAUUCUGGUGAAUCUGGGAAUUCUGCUGU [A10G C57G], for which the self-cleavage was determined as 0.199.

GGGGGCCACGGCAGAAGCGUUCACGUCGCGGCCCCUGUCAGAUUCUGGUGAAUCUGUGAAUUCUGCUGU [A10G C57U]: the self-cleavage was determined as 0.284.

Take GGGGGCCACGGCAGAAGCGUUCACGUCGCGGCCCCUGUCAGAUUCUGGUGAAUCUGCGAGUUCUGCUGU [A10G A60G]: the self-cleavage came out at 0.656.

GGGGGCCACGGCAGAAGCGUUCACGUCGCGGCCCCUGUCAGAUUCUGGUGAAUCUGCGAAUUGUGCUGU [A10G C63G]: the self-cleavage was found to be 0.338.

With GGGGGCCACGGCAGAAGCGUUCACGUCGCGGCCCCUGUCAGAUUCUGGUGAAUCUGCGAAUUAUGCUGU [A10G C63A], the self-cleavage was determined as 0.253.

On to GGGGGCCACGGCAGAAGCGUUCACGUCGCGGCCCCUGUCAGAUUCUGGUGAAUCUGCGAAUUUUGCUGU [A10G C63U], for which the self-cleavage amounted to 0.615.

As for GGGGGCCACGGCAGAAGCGUUCACGUCGCGGCCCCUGUCAGAUUCUGGUGGAUCUGCGAAUUCUGCUGU [A10G A51G], the self-cleavage is 0.857.

Regarding GGGGGCCACGGCAGAAGCGUUCACGUCGCGGCCCCUGUCAGAUUCUGGUGUAUCUGCGAAUUCUGCUGU [A10G A51U], the self-cleavage was found to be 0.825.

As for GGGGGCCACGGCAGAAGCGUUCACGUCGCGGCCCCUGUCAGAUUCUGGUGCAUCUGCGAAUUCUGCUGU [A10G A51C], the self-cleavage amounted to 0.73.

Take GGGGGCCACGGCAGAAGCGUUCAGGUCGCGGCCCCUGUCAGAUUCUGGUGAAUCUGCGAAUUCUGCUGU [A10G C24G]: the self-cleavage stood at 0.297.

For GGGGGCCACGGCAGAAGCGUUCAAGUCGCGGCCCCUGUCAGAUUCUGGUGAAUCUGCGAAUUCUGCUGU [A10G C24A], the self-cleavage was 0.615.

On to GGGGGCCACGGCAGAAGCGUUCAUGUCGCGGCCCCUGUCAGAUUCUGGUGAAUCUGCGAAUUCUGCUGU [A10G C24U], for which the self-cleavage amounted to 0.186.

For GGGGGCCACGGCAGAAGCGUUCACGUCGCGGCCCCUGUCAGAUUCUGGUGAAUGUGCGAAUUCUGCUGU [A10G C54G], the self-cleavage is 0.404.

GGGGGCCACGGCAGAAGCGUUCACGUCGCGGCCCCUGUCAGAUUCUGGUGAAUAUGCGAAUUCUGCUGU [A10G C54A]: the self-cleavage was determined as 0.527.

Turning to GGGGGCCACGGCAGAAGCGUUCACGUCGCGGCCCCUGUCAGAUUCUGGUGAAUUUGCGAAUUCUGCUGU [A10G C54U], the self-cleavage was found to be 0.8.

On to GGGGGCCACGGCAGAAGCGUUCACGUCGGGGCCCCUGUCAGAUUCUGGUGAAUCUGCGAAUUCUGCUGU [A10G C29G], for which the self-cleavage worked out at 0.225.

As to GGGGGCCACGGCAGAAGCGUUCACGUCGCGGCCCCUGUCAUAUUCUGGUGAAUCUGCGAAUUCUGCUGU [A10G G41U], the self-cleavage came to 0.466.
